Substitutions are numbered along the chain they refer to.
Legend:
Dnase1 = experiment: fluorescence polarization; conditions: FP: 50 mM Hepes pH 7.5 (Results say pH 7.4), 100 mM NaCl, 0.1 mM EDTA (1 mM for Dnase1L3/Dnase1), 1% glycerol, 1 mM TCEP, 0.1% PEG 6000, 20 nM dsDNA, 30 min at …
[1] = molecular target: T1, Dnase1L3 CTD peptide (cleaved from SH3-CTD) (human, UniProt Q13609); experiment: fluorescence polarization; 100 mM NaCl, 0.1 mM EDTA; FP: 50 mM Hepes pH 7.5 (Results say pH 7.4), 100 mM NaCl, 0.1 mM EDTA (1 mM for Dnase1L3/Dnase1), 1% glycerol, 1 mM TCEP, 0.1% PEG 6000, 20 nM dsDNA, 30 min at; conditions: protein: recombinant; tags: TEV-cleaved from His-SH3 fusion; label: 5'-FAM on strand 1; blunt
T1 chain: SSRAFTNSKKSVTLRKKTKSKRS

Dnase1L3 R132A = molecular target: T2, Dnase1L3 R132A (human, UniProt Q13609 21-305, R132A); experiment: fluorescence polarization; 1 mM EDTA; FP: 50 mM Hepes pH 7.5 (Results say pH 7.4), 100 mM NaCl, 0.1 mM EDTA (1 mM for Dnase1L3/Dnase1), 1% glycerol, 1 mM TCEP, 0.1% PEG 6000, 20 nM dsDNA, 30 min at; conditions: protein: recombinant; blunt
T2 sequence: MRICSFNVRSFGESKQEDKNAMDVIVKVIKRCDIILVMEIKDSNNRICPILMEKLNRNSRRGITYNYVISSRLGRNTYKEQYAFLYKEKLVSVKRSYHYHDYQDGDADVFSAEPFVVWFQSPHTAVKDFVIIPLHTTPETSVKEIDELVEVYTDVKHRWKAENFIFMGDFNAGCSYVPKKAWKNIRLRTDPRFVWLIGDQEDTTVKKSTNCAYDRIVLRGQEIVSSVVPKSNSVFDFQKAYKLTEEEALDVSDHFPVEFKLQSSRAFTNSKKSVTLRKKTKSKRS

Dnase1L3 WT = molecular target: T3, Dnase1L3 WT (human, UniProt Q13609 21-305); experiment: as above; conditions: protein: recombinant; tags: His-MBP removed by TEV; blunt
T3 sequence: T2 sequence with A112R

For “GTGTTCGGACTCTGCCTCAAGACGGTAGTCAACGTGCTTG (double strand) [FITC 40-mer dsDNA]”, the Kd (Dnase1) was 2900 nM.

B1: FAM 40-mer dsDNA (dsDNA)
DNA 1: GTGTTCGGACTCTGCCTCAAGACGGTAGTCAACGTGCTTG
DNA 2: CAAGCACGTTGACTACCGTCTTGAGGCAGAGTCCGAACAC
In the case of B1, the Kd [1] is reported as 4.9 µM.

B2: FITC 40-mer dsDNA (dsDNA)
DNA 1: B1 DNA 1
DNA 2: B1 DNA 2
For B2, the Kd (Dnase1L3 R132A) was 4.95 µM and the Kd (Dnase1L3 WT) was 990 ± 330 nM.

Reference: paper PMC9381713, “Structural features of Dnase1L3 responsible for serum antigen clearance”
